In patent US20080008707A1, “Denatured collagen peptides and uses thereof” (Cell-Matrix, Inc., priority 2006, published 2008):
Each block holds one molecule with its values, some of them ahead of it. Square brackets hold non-standard residues; d marks the D form. Ends that are not written are not given here. Hyp = O=C(O)[C@@H]1C[C@@H](O)CN1

Legend:
D93 = assay: Peptide array screening ELISA: D93 binding to biotinylated synthetic collagen peptides; conditions: for MAB BINDING (OD450nM): D93 at 10 μg/mL, average of duplicate tests, secondary array, proline or hydroxyproline at each proline position; for binding activity by D93 (primary peptide array): 10 μg/mL D93, 16-mers with N-terminal biotin, 50% proline/hydroxyproline mixture at each proline
Experimental: The synthesis of short peptide arrays or single peptides was contracted to New England Peptide, Gardner, Mass. A peptide array (primary array) was initially constructed which corresponded to specific locations in the protein sequences that were identified in by N-terminal sequencing reactions as described above. The peptide array consisted of a 96-well microplate template containing individual, overlapping peptides (˜1 to 10 mg/well) corresponding to a contiguous sequence of the human collagen type alpha I chain (between residues G1,064 and T1,669) with an N-terminal biotin and 50% hydroxyproline or proline mixture for each proline residue, with a length of 16 amino acids and overlap of 10 amino acids with the adjacent protein sequence. Peptides were dissolved in 400 μL DMSO to achieve a stock peptide concentration of 2.5 to 25 mg/mL.
The ELISA assay described above was used screen peptides for D93 binding activity. Briefly, 100 μL of streptavidin at 10 μg/mL in PBS was coated onto 96-well microtiter plates from 12 to 18 hours at 2 to 8° C. Plates were blocked with 1% BSA/PBS as above. D93 was diluted to 10 μg/mL in 1% BSA/PBS, and 100 μL per well was added, in duplicate, as described above and incubated for 1 hour at room temperature. The secondary anti-human IgG-HRP, substrate development and plate reader steps were as described above. Peptides which were bound by D93 were further tested for inhibition of D93 binding to human heat-denatured-collagen IV using the ELISA described above. Peptides and D93 antibody were prepared at a 2× concentration in 1% BSA/PBS of the final test concentration and pre-mixed in 1.7 mL microfuge for 15 minutes prior to adding to the microplate wells.
A second peptide array was constructed based on permutations of the protein sequence (collagen IV alpha I chain residues 1337-1352, termed “peptide 40” of the primary array) in the primary array that reacted with D93. The secondary array consisted of individual peptides with either proline or hydroxyproline at each proline residue in the peptide PGAKGLPGPPGPPGPY (SEQ ID NO: 1).

[1] = biological target: human heat-denatured collagen type IV (human); assay: SPR, high density denatured collagen IV surface, avidity model, CLAMP
Chain of human heat-denatured collagen type IV (human) (P08572 other isoform, or with tags, fused parts or gaps): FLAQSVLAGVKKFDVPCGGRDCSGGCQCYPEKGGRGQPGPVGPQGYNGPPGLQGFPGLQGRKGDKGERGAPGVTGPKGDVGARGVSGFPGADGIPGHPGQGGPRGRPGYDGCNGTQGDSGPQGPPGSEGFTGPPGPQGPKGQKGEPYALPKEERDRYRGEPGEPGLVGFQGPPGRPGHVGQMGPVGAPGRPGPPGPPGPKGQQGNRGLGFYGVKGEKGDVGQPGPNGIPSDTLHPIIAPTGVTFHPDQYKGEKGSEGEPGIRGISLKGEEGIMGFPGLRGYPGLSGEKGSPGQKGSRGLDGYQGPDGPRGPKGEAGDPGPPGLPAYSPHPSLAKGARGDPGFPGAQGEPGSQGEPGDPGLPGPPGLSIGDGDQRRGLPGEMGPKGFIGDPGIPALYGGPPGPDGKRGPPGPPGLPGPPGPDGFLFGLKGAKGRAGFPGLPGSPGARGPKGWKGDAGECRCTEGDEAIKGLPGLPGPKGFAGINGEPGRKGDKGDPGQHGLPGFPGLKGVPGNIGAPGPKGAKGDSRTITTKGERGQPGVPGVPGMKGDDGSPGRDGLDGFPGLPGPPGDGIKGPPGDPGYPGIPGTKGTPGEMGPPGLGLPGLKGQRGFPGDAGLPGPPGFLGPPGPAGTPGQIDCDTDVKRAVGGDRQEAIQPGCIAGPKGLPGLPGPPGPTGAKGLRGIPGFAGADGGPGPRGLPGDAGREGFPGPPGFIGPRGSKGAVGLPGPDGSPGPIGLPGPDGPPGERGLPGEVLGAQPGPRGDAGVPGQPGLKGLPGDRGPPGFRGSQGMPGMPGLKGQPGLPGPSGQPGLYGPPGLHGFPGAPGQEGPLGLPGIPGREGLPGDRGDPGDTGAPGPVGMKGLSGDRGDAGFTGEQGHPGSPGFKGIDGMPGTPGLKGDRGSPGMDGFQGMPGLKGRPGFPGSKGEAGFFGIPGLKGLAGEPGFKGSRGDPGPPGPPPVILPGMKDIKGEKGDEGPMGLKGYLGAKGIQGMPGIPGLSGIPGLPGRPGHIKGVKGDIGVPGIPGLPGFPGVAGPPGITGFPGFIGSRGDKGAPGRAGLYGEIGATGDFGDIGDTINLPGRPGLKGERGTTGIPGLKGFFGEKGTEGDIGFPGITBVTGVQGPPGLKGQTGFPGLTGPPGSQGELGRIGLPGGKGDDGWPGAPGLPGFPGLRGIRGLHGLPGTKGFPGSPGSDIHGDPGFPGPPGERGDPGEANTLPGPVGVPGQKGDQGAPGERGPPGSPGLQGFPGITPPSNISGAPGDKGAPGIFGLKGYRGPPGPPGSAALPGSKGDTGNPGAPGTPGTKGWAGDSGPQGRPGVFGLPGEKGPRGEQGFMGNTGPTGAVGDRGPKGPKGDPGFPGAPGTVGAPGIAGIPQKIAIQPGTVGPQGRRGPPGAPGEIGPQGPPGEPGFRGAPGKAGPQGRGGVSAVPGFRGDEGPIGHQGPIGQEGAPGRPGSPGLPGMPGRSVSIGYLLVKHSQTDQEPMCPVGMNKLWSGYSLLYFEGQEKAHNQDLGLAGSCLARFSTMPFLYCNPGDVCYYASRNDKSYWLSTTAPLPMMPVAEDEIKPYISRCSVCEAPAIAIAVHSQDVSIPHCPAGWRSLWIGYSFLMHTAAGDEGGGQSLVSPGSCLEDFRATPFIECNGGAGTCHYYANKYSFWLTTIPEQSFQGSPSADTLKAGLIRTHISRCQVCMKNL

[2] = biological target: human heat-denatured collagen type IV (human); assay: SPR, high density denatured collagen IV surface, avidity model (second binding step), CLAMP
[3] = biological target: dn-collagen or synthetic peptide (sensor chips with a low or medium density); assay: SPR (Biacore), bivalent antibody binding, avidity model
[4] = biological target: biotinylated synthetic collagen peptide α1(IV) P1337-Y1352 (human); assay: SPR (Biacore), low density biotinylated peptide on streptavidin chip, monomeric D93 Fab
[5] = biological target: biotinylated synthetic collagen peptide α1(IV) P1337-Y1352 (human); assay: SPR, low density biotinylated peptide surface on streptavidin, simple 1:1 interaction model, CLAMP
[6] = biological target: biotinylated synthetic collagen peptide α1(IV) P1337-Y1352 (human); assay: SPR, high density biotinylated peptide surface on streptavidin, avidity model (second binding step), CLAMP
[7] = biological target: biotinylated synthetic collagen peptide α1(IV) P1337-Y1352 (human); assay: SPR (Biacore), high density biotinylated peptide on streptavidin chip, monomeric D93 Fab
[8] = biological target: biotinylated synthetic collagen peptide α1(IV) P1337-Y1352 (human); assay: SPR (Biacore), medium density biotinylated peptide on streptavidin chip, monomeric D93 Fab
[9] = biological target: human heat-denatured collagen type IV (human); assay: SPR, low density denatured collagen IV surface, avidity model, CLAMP
[10] = biological target: human heat-denatured collagen type IV (human); assay: SPR (Biacore), high density dn-collagen on CM5 chip, monomeric (one Fab region) binding
[11] = biological target: human heat-denatured collagen type IV (human); assay: SPR (Biacore), medium density dn-collagen on CM5 chip, monomeric (one Fab region) binding
[12] = biological target: human heat-denatured collagen type IV (human); assay: SPR (Biacore), low density dn-collagen on CM5 chip, monomeric (one Fab region) binding
[13] = biological target: biotinylated synthetic collagen peptide α1(IV) P1337-Y1352 (human); assay: SPR, medium density biotinylated peptide surface on streptavidin, avidity model (second binding step), CLAMP
[14] = biological target: biotinylated synthetic collagen peptide α1(IV) P1337-Y1352 (human); assay: SPR, high density biotinylated peptide surface on streptavidin, avidity model, CLAMP
[15] = biological target: human heat-denatured collagen type IV (human); assay: SPR, medium density denatured collagen IV surface, avidity model (second binding step), CLAMP
[16] = biological target: biotinylated synthetic collagen peptide α1(IV) P1337-Y1352 (human); assay: SPR, medium density biotinylated peptide surface on streptavidin, avidity model, CLAMP
[17] = biological target: human heat-denatured collagen type IV (human); assay: SPR, medium density denatured collagen IV surface, avidity model, CLAMP
[18] = biological target: human heat-denatured collagen type IV (human); assay: SPR, low density denatured collagen IV surface, avidity model (second binding step), CLAMP
[19] = biological target: denatured collagen type-I (human) (UniProt P02452); assay: ELISA
Chain of UniProt P02452 (P02452 21-1464 V1081A/Q1391K, chain 1 of 2): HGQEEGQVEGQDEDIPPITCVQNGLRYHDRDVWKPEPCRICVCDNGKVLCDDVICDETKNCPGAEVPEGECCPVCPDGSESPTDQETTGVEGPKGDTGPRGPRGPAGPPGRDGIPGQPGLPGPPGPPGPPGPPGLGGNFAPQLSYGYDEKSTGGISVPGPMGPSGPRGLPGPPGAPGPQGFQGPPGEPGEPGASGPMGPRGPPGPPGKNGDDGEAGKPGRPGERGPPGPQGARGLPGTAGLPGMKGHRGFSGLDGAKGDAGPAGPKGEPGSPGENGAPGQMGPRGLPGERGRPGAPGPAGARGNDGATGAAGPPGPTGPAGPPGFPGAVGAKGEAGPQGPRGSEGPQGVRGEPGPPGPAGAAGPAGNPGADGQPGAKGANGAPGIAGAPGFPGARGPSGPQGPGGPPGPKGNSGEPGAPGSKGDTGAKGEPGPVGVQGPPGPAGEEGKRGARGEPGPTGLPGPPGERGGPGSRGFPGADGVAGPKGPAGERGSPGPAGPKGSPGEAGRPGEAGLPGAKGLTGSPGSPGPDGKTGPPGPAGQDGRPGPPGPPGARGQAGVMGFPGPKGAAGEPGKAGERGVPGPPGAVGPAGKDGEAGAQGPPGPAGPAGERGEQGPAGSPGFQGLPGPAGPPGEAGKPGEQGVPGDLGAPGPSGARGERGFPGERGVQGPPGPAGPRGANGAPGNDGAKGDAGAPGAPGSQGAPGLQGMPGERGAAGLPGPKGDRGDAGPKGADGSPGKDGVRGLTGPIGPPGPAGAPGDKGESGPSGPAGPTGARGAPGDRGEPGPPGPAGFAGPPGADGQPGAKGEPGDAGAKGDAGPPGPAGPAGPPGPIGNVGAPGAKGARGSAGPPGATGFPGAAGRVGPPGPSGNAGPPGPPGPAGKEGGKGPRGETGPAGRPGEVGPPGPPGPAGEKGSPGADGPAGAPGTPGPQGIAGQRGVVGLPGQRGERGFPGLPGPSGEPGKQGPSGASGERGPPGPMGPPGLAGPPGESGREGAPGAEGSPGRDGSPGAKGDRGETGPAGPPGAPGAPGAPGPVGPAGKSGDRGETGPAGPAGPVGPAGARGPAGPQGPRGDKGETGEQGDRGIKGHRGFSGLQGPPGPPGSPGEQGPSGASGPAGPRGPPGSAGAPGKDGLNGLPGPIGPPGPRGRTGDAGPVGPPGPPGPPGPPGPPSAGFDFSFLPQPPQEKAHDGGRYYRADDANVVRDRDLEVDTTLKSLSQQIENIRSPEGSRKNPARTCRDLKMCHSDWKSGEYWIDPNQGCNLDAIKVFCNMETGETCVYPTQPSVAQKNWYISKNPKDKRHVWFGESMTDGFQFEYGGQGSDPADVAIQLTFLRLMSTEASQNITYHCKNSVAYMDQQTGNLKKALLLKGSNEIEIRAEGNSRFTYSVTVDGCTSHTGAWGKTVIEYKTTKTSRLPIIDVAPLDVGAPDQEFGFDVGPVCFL
Chain of UniProt P02452 (P02452 other isoform, or with tags, fused parts or gaps, chain 2 of 2): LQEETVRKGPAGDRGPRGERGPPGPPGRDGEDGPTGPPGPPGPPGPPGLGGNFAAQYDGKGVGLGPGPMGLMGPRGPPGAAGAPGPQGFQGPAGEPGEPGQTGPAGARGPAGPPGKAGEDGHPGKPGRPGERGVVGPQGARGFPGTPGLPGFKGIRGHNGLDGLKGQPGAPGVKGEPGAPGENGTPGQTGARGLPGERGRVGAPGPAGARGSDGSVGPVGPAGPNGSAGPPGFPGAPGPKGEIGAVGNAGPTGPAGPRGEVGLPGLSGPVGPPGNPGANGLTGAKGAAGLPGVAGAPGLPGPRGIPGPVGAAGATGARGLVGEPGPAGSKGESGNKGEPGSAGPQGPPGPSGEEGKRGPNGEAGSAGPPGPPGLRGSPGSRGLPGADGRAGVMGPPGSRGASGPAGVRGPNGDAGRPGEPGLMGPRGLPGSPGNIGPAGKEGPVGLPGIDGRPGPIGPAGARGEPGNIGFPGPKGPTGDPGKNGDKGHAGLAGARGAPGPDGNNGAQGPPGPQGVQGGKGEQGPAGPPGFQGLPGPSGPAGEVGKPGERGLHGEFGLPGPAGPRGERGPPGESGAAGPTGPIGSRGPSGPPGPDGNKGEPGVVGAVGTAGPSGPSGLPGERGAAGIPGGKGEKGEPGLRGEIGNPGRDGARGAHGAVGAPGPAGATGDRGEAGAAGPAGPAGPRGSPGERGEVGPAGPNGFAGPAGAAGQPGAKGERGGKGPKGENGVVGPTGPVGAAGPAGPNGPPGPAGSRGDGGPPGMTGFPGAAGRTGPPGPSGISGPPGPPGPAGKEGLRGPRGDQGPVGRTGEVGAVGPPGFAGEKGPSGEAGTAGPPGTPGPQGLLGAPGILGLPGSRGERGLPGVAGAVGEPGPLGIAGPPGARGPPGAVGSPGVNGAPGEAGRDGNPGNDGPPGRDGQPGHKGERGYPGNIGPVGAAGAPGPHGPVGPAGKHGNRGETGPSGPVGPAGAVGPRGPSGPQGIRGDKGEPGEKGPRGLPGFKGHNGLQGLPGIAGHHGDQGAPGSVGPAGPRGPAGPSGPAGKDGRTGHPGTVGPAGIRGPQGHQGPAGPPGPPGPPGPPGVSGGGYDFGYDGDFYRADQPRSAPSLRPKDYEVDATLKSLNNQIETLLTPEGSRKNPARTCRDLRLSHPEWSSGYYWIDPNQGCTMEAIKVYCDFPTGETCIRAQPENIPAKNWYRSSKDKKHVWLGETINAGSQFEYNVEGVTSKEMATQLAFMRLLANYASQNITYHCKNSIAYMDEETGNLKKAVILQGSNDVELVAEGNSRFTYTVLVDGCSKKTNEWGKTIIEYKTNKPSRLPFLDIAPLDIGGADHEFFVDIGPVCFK

[20] = biological target: human heat-denatured collagen type IV (human); assay: ELISA
[21] = biological target: denatured collagen type-I (human) (UniProt P02452); assay: cell-based or functional assay
denatured collagen V = assay: ELISA (data not shown)
[22] = biological target: human heat-denatured collagen type IV (human); assay: ELISA (data not shown)
denatured collagen III = assay: ELISA (data not shown)
[23] = biological target: human heat-denatured collagen type IV (human); assay: ELISA, wells coated with human heat-denatured collagen IV, anti-mouse IgM-HRP, read at 450 nm
[24] = biological target: D93, recombinant humanized IgG1 kappa antibody targeting denatured-collagen; assay: competition ELISA on coated human dn-collagen IV
Chain of D93, recombinant humanized IgG1 kappa antibody targeting denatured-collagen (heavy, as listed by the source, chain 1 of 2): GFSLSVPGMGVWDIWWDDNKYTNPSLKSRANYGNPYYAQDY
Chain of D93, recombinant humanized IgG1 kappa antibody targeting denatured-collagen (light, as listed by the source, chain 2 of 2): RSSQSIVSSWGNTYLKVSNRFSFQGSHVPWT

[25] = biological target: HUI77, murine IgM anti-denatured-collagen monoclonal antibody; assay: competition ELISA on coated dn-collagen IV
[26] = biological target: HUI77, murine IgM anti-denatured-collagen monoclonal antibody; assay: competition ELISA on coated dn-collagen IV; * separate assay
[27] = biological target: D93, recombinant humanized IgG1 kappa antibody targeting denatured-collagen; assay: competition ELISA on coated human dn-collagen IV; * separate assay

- binding activity by D93 (primary peptide array) (D93): higher activity than the others
- MAB BINDING (OD450nM) (D93): 0.348 OD450nM
Molecule: 13: peptide 13 of the primary collagen IV alpha 1 array: biotinylated 16-mer, 50% proline/hydroxyproline at each proline (PGAKGLPGPPGPPGPY; not fully specified; also: biotinylated, position not given here) [compound 13]

- fold apparent reactivity, denatured over native collagen type-I [19]: > 10 fold
- fold affinity, denatured over native collagen type-IV [20]: 10 fold
- inhibition of human endothelial cell adhesion to denatured collagen type-I [21]: 40%
- inhibition of human endothelial cell migration on denatured collagen-I [21]: 80%
- fold tighter binding, denatured over native form (denatured collagen V): 10 fold
- fold tighter binding, denatured over native form [22]: 8 fold
- fold tighter binding, denatured over native form (denatured collagen III): 7 fold
- EC50 (read off the curve) [23]: 0.1 µg/mL
Molecule: HUI77, murine IgM anti-denatured-collagen monoclonal antibody

The next lines start with the molecule.

Molecule: 1 (PGAKGLPGPPGPPGPY) [compound 1]
- MAB BINDING (OD450nM) (D93): 0.136 OD450nM

Molecule: D93, recombinant humanized IgG1 kappa antibody targeting denatured-collagen
- koff [1]: 0.038 s⁻¹
- kon [1]: 5800 M⁻¹ s⁻¹
- ka2 [2]: 4.3e-06 RU s-1
- kd2 [2]: 0.0024 s⁻¹
- Kd [3]: 0.03 to 0.063 µM
- Kd [4]: 11 µM
- koff [5]: 0.52 s⁻¹
- kon [5]: 42800 M⁻¹ s⁻¹
- ka2 [6]: 6.6e-06 RU s-1
- kd2 [6]: 0.014 s⁻¹
- Kd [7]: 1.3 µM
- Kd [8]: 1.7 µM
- koff [9]: 0.33 s⁻¹
- kon [9]: 32700 M⁻¹ s⁻¹
- Kd [10]: 6.5 µM
- Kd [11]: 7.8 µM
- Kd [12]: 10 µM
- ka2 [13]: 5.2e-06 RU s-1
- kd2 [13]: 0.006 s⁻¹
- koff [14]: 0.057 s⁻¹
- kon [14]: 41900 M⁻¹ s⁻¹
- ka2 [15]: 1.8e-06 RU s-1
- kd2 [15]: 0.0017 s⁻¹
- koff [16]: 0.1 s⁻¹
- kon [16]: 57800 M⁻¹ s⁻¹
- koff [17]: 0.21 s⁻¹
- kon [17]: 26800 M⁻¹ s⁻¹
- ka2 [18]: 7.1e-06 RU s-1
- kd2 [18]: 0.00099 s⁻¹

Molecule: peptide 40: primary array peptide, collagen IV alpha I chain residues 1337-1352, 50% proline/hydroxyproline mixture; b687 equates it with SEQ ID NO: 2 (XGAKGLPGPXGPXGPY; not fully specified; X: randomised place (mixture))
- binding activity by D93 (primary peptide array) (D93): higher activity than the others

B1: non-collagen control peptide No. 6, … (SEQ ID NO: 39) (peptide)
peptide: CTWPRHHTTDALL
- % inhibition of D93 binding to dn-collagen IV, peptide 1 µM [24]: 4.5%
- % inhibition of D93 binding to dn-collagen IV, peptide 10 µM [24]: 1%
- % inhibition of D93 binding to dn-collagen IV, peptide 100 µM [24]: 0%
- % inhibition of D93 binding to dn-collagen IV, peptide 1000 µM [24]: 3.5%
- % inhibition of HUI77 binding to dn-collagen IV, peptide 10 µM [25]: 6.5%
- % inhibition of HUI77 binding to dn-collagen IV, peptide 100 µM [25]: 6.5%
- % inhibition of HUI77 binding to dn-collagen IV, peptide 1000 µM [25]: 6.5%
- % inhibition of HUI77 binding to dn-collagen IV, peptide 1000 µM [26]: 11.1%
- % inhibition of D93 binding to dn-collagen IV, peptide 1000 µM [27]: 4.9%

B2: synthetic peptide No. 3, … (SEQ ID NO: 30) (peptide)
peptide: GP[Hyp]GP[Hyp]GPY
- % inhibition of D93 binding to dn-collagen IV, peptide 1 µM [24]: 33%
- % inhibition of D93 binding to dn-collagen IV, peptide 10 µM [24]: 82.5%
- % inhibition of D93 binding to dn-collagen IV, peptide 100 µM [24]: 94%
- % inhibition of D93 binding to dn-collagen IV, peptide 1000 µM [24]: 94%
- % inhibition of HUI77 binding to dn-collagen IV, peptide 10 µM [25]: 8.5%
- % inhibition of HUI77 binding to dn-collagen IV, peptide 100 µM [25]: 12%
- % inhibition of HUI77 binding to dn-collagen IV, peptide 1000 µM [25]: 78%
- % inhibition of HUI77 binding to dn-collagen IV, peptide 100 µM [26]: 0%
- % inhibition of HUI77 binding to dn-collagen IV, peptide 1000 µM [26]: 63%
- % inhibition of D93 binding to dn-collagen IV, peptide 10 µM [27]: 79.9%
- % inhibition of D93 binding to dn-collagen IV, peptide 100 µM [27]: 90.3%
